Test results from patent US7883707B2, “Induction of antigen specific immunnologic tolerance” (priority 2002, dated 2011).
Values joined by “and” are separate entries in the source; they are usually repeats but may differ in a detail not shown here. Identical values can stand only once. “Also recorded” adds a separate entry of the source.

B1: iduronidase: recombinant human α-L-iduronidase, lysosomal hydrolase with mannose 6-phosphate marker (protein, UniProt P35475 28-653, looked up)
Alpha-L-iduronidase: APHLVHVDAARALWPLRRFWRSTGFCPPLPHSQADQYVLSWDQQLNLAYVGAVPHRGIKQVRTHWLLELVTTRGSTGRGLSYNFTHLDGYLDLLRENQLLPGFELMGSASGHFTDFEDKQQVFEWKDLVSSLARRYIGRYGLAHVSKWNFETWNEPDHHDFDNVSMTMQGFLNYYDACSEGLRAASPALRLGGPGDSFHTPPRSPLSWGLLRHCHDGTNFFTGEAGVRLDYISLHRKGARSSISILEQEKVVAQQIRQLFPKFADTPIYNDEADPLVGWSLPQPWRADVTYAAMVVKVIAQHQNLLLANTTSAFPYALLSNDNAFLSYHPHPFAQRTLTARFQVNNTRPPHVQLLRKPVLTAMGLLALLDEEQLWAEVSQAGTVLDSNHTVGVLASAHRPQGPADAWRAAVLIYASDDTRAHPNRSVAVTLRLRGVPPGPGLVYVTRYLDNGLCSPDGEWRRLGRPVFPTAEQFRRMRAAEDPVAAAPRPLPAGGRLTLRPALRLPSLLLVHVCARPEKPPGQVTRLRALPLTQGQLVLVWSDEHVGSKCLWTYEIQFSQDGKAYTPVSRKPSTFNLFVFSPDTGAVSGSYRVRALDYWARPGPFSDPVPYLEVPVPRGPPSPGNP
B2: dephospho iduronidase: recombinant iduronidase dephosphorylated by incubation with acid phosphatase bound to beads (protein, UniProt P35475 28-653, looked up)
Alpha-L-iduronidase: B1 Alpha-L-iduronidase
modifications: dephosphorylated
B3: ovalbumin: non-phosphorylated protein antigen with mannose terminated N-linked oligosaccharides (protein, UniProt P01012 2-386, looked up)
Ovalbumin: GSIGAASMEFCFDVFKELKVHHANENIFYCPIAIMSALAMVYLGAKDSTRTQINKVVRFDKLPGFGDSIEAQCGTSVNVHSSLRDILNQITKPNDVYSFSLASRLYAEERYPILPEYLQCVKELYRGGLEPINFQTAADQARELINSWVESQTNGIIRNVLQPSSVDSQTAMVLVNAIVFKGLWEKAFKDEDTQAMPFRVTEQESKPVQMMYQIGLFRVASMASEKMKILELPFASGTMSMLVLLPDEVSGLEQLESIINFEKLTEWTSSNVMEERKIKVYLPRMKMEEKYNLTSVLMAMGITDVFSSSANLSGISSAESLKISQAVHAAHAEINEAGREVVGSAEAGVDAASVSEEFRADHPFLFCIKHIATNAVLFFGRCVSP

How the values were obtained:
[1] = system: Hurler fibroblasts; experiment: Half maximal uptake (Kuptake) of iduronidase into Hurler fibroblasts; type: cell-based
From the text: It is especially preferred that the receptor has a Kuptake for the ligand of at least about 10^−6 M, usually at least about 10^−7 M more usually at least about 10^−8 M and preferably at least about 10^−9 M where Kuptake represents the concentration of ligand at which half maximal uptake occurs in a cell. Receptors of interest include the transferrin receptor, the melanotransferrin receptor, mannose 6-phosphate receptor, growth hormone receptor, and the like. Cognate ligands include: insulin-like growth factor II (IGF2), transferrin, growth hormone, insulin, and binding fragments thereof, particularly polypeptides having specific and high affinity receptors on diverse cell types. Single chain antibodies and binding agents from randomized phage display systems could be used if they have adequate affinity for the receptor. To determine the Kuptake of a ligand and receptor combination, methods known in the art may be used, for example see Kakkis et al. (1994) Protein Expr Purif 5(3):225-32 for assays used to determine the Kuptake of alpha-L-iduronidase. The disclosed methods are readily adapted to any ligand and receptor combination. Such assays are also useful in verifying the uptake of toleragens comprising exogenous high uptake moieties.
Enzyme Infusions. […] Animals monitored for an anaphylactic reaction. […]

[2] = system: IgA and IgE antibodies to iduronidase; experiment: ELISA for IgG, IgA and IgE antibodies to iduronidase in canine sera; type: in vivo; conditions: before vs after 12 weekly infusions with iduronidase
From the text: The tolerance regimen in canine prevents the induction of IgG as manifested by a decrease in total IgG response against iduronidase as compared to the IgG response observed in non-tolerant canines. […] Analyses of the immune sera of canines that were either tolerant (dogs […] and SA) or canine controls (dogs RU and UM) that had not received the tolerizing regimen were studied for the presence of IgG, IgA and IgE antibodies to iduronidase.

[3] = dog, in vivo
Experimental: Canines were administered 14,000 U/kg/week α-L-iduronidase or higher dose as dose was ramped up, in a 50 mL infusion in saline containing 1 mg/mL canine albumin, 10 mM NaPO4, pH 5.8. Administered intravenously over 2 hours (1st hour 3,000 U/kg/hr; 2nd hour 11,000 U/kg/hr, or a higher rate in the 2nd hour depending on the dose). Animals were monitored for anaphylactic reaction.

[4] = system: antibody titer to iduronidase; experiment: ELISA antibody titer to iduronidase in canines on weekly iduronidase infusions, with or without tolerance regimens
Experimental: Normal and MPS I canines were obtained from the MPS I canine colony at Harbor-UCLA. The dogs are a cross between beagles and Plott hounds and average 12-20 kg in weight. The canines were under 2 years of age and at least 4 months of age for these experiments.
Enzyme Infusions. […] For toleragenic infusions, 14,000 U/kg/week α-L-iduronidase in 50 mL infusion in saline with 1 mg/mL canine albumin, and 10 mM NaPO4 was administered intravenously over 2 hours (1st hour 3,000 U/kg/hr; 2nd hour 11,000 U/kg/hr). Animals monitored for an anaphylactic reaction.
Canines were initiated on immunosuppressive drugs at day 0, equivalent to 18 days prior to the first enzyme challenge. If scheduled, the canines received monoclonal antibodies by intravenous infusion (2-5 mg) just prior to ITI. On day 4, the dogs received, if scheduled, an intrathymic injection of iduronidase at 1 mg/kg. Two weeks later, the dogs were begun on a weekly schedule of iduronidase enzyme infusions consisting of a weekly intravenous infusion of 14,000 U/kg (0.056 mg/kg/wk) of human recombinant iduronidase.
All canines received 0.056 mg/kg/week rh iduronidase intravenous challenges. Pre treatment ELISA values represent serum antibody levels prior to first antigen challenge with iduronidase.
Iduronidase was the same high uptake iduronidase as described above. The canines were challenged with 0.58 mg/kg of enzyme administered intravenously on a weekly basis for 3-6 doses.

[5] = system: ovalbumin; experiment: Attempted induction of tolerance to ovalbumin; type: in vivo; conditions: ovalbumin with mannose terminated N-linked oligosaccharides
From the text: The titer in the tolerance dogs stayed low for several months and was studied in RO and SA for 6 months of weekly infusions (FIG. 2).

Molecule | Kuptake (enzyme concentration at half maximal uptake) [1] | increase in IgA or IgE titer to iduronidase [2] [fold] | anaphylactic / anaphylactoid reaction during the infusion [3] | mean antibody titer after 12 weekly infusions of rhIDU ([4]; ELISA, eight normal and MPS I canines vs eight control canines) [OD units/μl serum] | Antibody levels at week 15 ([4]; MPS I canines, iduronidase raised stepwise to 0.500 mg/kg/week at week 15) [OD Units] | titer on reexposure (anamnestic response) ([4]; canine Nitro, after nearly 6 months hiatus, 0.5 mg/kg/wk infusions) | further increase in antibody titer on higher therapeutic doses ([4]; immune responsive canines) | induction in antibody titer on rechallenge ([4]; non-tolerant canine RU, after 2 doses of enzyme following 4.5 month hiatus) [fold] | titers by week 14 of enzyme therapy ([4]; two MPS I canines previously treated with 0.5 mg/kg/wk, no tolerance regimen, 0.5 mg/kg) | mean antibody titer on higher therapeutic doses of iduronidase ([4]; up to 6 months, n=6 tolerant, n=2 immune responsive) [OD/μl serum] | tolerance induction with this form of the toleragen ([4]; canines, applied with the tolerance regimen (CsA+Aza), listed as dephosphorylated rhIDU) | induction of tolerance to ovalbumin [5]
B1 | about 1 nanomolar | ~10 | serious clinical anaphylactic reaction | 149 | > 500 | ≥ 400 | 2-3 fold | > 20 | 1800 and 2000 | 369 | – | –
B2 | too low to be calculated | – | – | – | – | – | – | – | – | – | did not allow induction of the tolerant state | –
B3 | – | – | – | – | – | – | – | – | – | – | – | did not succeed; also recorded: could not
